Laboratory results: paper PMC6981324

Assays:
Test in all cases: ITC
[1] = biological target: single mutant HasR (Ile671Gly), Ile671Gly-HasR (Serratia marcescens)
[2] = biological target: double mutant HasR (Arg297Ala/Asn800Ala), DM-HasR (Serratia marcescens)
[3] = biological target: wild-type HasR (WT-HasR) (Serratia marcescens)

B1: heme-free HasA (apoHasA) (natural protein)
chain: MAFSVNYDSSFGGYSIHDYLGQWASTFGDVNHTNGNVTDANSGGFYGGSLSGSQYAISSTANQVTAFVAGGNLTYTLFNEPAHTLYGQLDSLSFGDGLSGGDTSPYSIQVPDVSFGGLNLSSLQAQGHDGVVHQVVYGLMSGDTGALETALNGILDDYGLSVNSTFDQVAAATAVGVQHADSPELLAA
For B1, the Ka [1] was 1.8e+07 M⁻¹, the dH [1] was -54 kcal/M and the stoichiometry N [1] was 1.06. For the same binder, the Ka [2] was 1.53e+07 M⁻¹, the dH [2] was -26 kcal/M and the stoichiometry N [2] was 1.05. For the same binder, the Ka [3] was 1.7e+08 M⁻¹, the dH [3] was -43 kcal/M and the stoichiometry N [3] was 0.92.

B2: heme-loaded HasA (holoHasA) (natural protein)
chain: B1 chain
B2 was tested, and the Ka [1] was 9.4e+07 M⁻¹, the dH [1] was -46 kcal/M and the stoichiometry N [1] was 0.99. The Ka [2] was 2.4e+06 M⁻¹, the dH [2] was -15 kcal/M and the stoichiometry N [2] was 1.02. For the same binder, the Ka [3] was 1.1e+06 M⁻¹, the dH [3] was -21 kcal/M and the stoichiometry N [3] was 1.11.
